One may read the Ki as a measure of affinity in units of concentration, obtained from inhibition or displacement. A higher Ki goes with lower affinity.

This data set concerns the target GluR2Qflip AMPA receptor (homomeric channel) (UniProt P19491-2 P19491-2:22-883). The data set is described as follows: inhibition; intrinsic KI, whole-cell current, competitive; pH 7.4, 22 C, -60 mV. The note with it: tags: expressed in HEK-293S cells (co-transfected with GFP and SV40 large T antigen); chain copies: 4. The procedure:
Glutamate, a natural neurotransmitter, was used as the activating ligand, and the resulting receptor response in a single cell was recorded. Recording electrodes were made from glass capillary pipettes and fire polished. The electrode resistance was ˜3M Ω when filled with the electrode solution. The electrode solution contained 110 mM CsF, 30 mM CsCl, 4 mM MaCl, 0.5 mM CaCl₂, 5 mM EGTA, and 10 mM Hepes (pH 7.4 adjusted by CsOH). The external bath solution contained 150 mM NaCl, 3 mM KCl, 1 mM CaCl₂, 1 mM MgCl₂ and 10 mM Hepes (pH7.4 adjusted by NaOH). The GFP fluorescence in transfected cells was visualized using an Axiovert S100 microscope with a fluorescent detection system from Carl Zeiss (Thornwood, N.Y.). The whole-cell current was recorded using an Axonpatch-200B amplifier at a cutoff frequency of 2-20 kHz by a built-in eight-pole Bessel filter and digitized at 5-50 kHz sampling frequency using a Digidata 1322A from Axon Instruments (Union City, Calif.). The data acquisition software was pCLAMP 8, also from Axon Instruments.
The present invention relates to the discovery and characterization of a group of water-soluble AMPA receptor inhibitors, which are RNA aptamers that can fold into unique three-dimensional structures that confer high affinity and specificity against biological targets. […]

GluR2Qflip AMPA receptor (homomeric channel), sequence (P19491 other isoform, or with tags, fused parts or gaps): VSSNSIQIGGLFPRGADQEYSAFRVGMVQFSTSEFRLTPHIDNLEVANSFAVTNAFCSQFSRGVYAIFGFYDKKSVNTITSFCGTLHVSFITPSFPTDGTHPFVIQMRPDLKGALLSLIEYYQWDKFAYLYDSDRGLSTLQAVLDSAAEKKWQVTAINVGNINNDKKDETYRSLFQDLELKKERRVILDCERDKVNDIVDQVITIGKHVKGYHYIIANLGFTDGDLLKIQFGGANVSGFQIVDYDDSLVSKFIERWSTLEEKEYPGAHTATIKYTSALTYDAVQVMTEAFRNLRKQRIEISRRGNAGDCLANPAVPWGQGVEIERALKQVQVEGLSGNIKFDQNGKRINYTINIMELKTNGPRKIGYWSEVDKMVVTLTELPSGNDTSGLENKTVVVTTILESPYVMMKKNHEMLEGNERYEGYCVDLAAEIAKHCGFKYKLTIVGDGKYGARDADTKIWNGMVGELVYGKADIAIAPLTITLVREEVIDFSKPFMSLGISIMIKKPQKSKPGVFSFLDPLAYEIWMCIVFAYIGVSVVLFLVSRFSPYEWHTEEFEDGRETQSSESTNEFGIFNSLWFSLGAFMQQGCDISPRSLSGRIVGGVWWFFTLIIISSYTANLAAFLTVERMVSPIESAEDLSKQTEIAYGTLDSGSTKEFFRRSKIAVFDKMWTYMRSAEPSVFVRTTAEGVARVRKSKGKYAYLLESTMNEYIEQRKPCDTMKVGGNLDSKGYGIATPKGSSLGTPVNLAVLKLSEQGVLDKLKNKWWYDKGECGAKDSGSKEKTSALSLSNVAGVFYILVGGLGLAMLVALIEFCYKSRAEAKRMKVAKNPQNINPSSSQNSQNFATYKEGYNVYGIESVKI

B1: AN57 (57-nt minimal aptamer, M1+M2 mixture) (ssRNA)
RNA: GGGCGAAUUCACUGCCAUCUAGGCAGUAACCAGGAGUUAGUAGGACAAGUUUCGUCC
In the case of B1, the affinity corresponds to a Ki of 133 nM.

The values above are taken from patent US20060148746, “Nucleic acid inhibitors of glutamate receptors” (published 2006).
